What is called EC50 (read off the curve) is the concentration giving half of the maximal effect. The low end stands for higher potency in that assay, the high end for lower potency in that assay.

The values that follow come from patent US20250129174A1 (LTZ THERAPEUTICS, published 2025).

The target in experiment [1] is T1, human CCR8 (human, UniProt P51685 1-355).
T1 construct: whole, on cells; The construct expressed in the CHO cells is not described further; also called hCCR8; C-C motif chemokine receptor 8
In words: flow cytometry on CHO cells expressing human CCR8, percent of positive cells. As for the experimental part:
Binding abilities of 4-1BB×CCR8 bispecific antibodies to CHO cells expressing human CCR8 were evaluated. About 50,000 CHO cells expressing human CCR8 were incubated with serially diluted antibodies (4-1BB-2×CCR8-2 (LC1) BsAb, 4-1BB-2×CCR8-2 (LC2) BsAb and 4-1BB-2×CCR8-2 (HC) BsAb) in FACS buffer (PBS+0.5% BSA) for 30 minutes on ice. […] As shown in FIGS. 13A-13B, all the three 4-1BB×CCR8 bispecific antibodies bind to CHO cells expressing human CCR8 very well.
(In general: A flow cytometer gives signals particle by particle.)

Experiment [2] concerns the target T2, human 4-1BB (human, UniProt Q07011 24-255).
T2 construct: whole, on cells; The construct expressed in the CHO cells is not described further; also called h4-1BB; CD137
In words: flow cytometry on CHO cells expressing human 4-1BB, anti-human IgG PE secondary antibody, percent of positive cells. As for the experimental part:
Binding abilities of 4-1BB×CCR8 bispecific antibodies (BsAb) to CHO cells expressing human 4-1BB were evaluated. About 50,000 CHO cells expressing human 4-1BB were incubated with serially diluted antibodies (4-1BB-2×CCR8-2 (LC1) BsAb, 4-1BB-2×CCR8-2 (LC2) BsAb, and 4-1BB-2×CCR8-2 (HC) BsAb) in FACS buffer (PBS+0.5% BSA) for 30 minutes on ice. After incubation, cells were washed twice and detected with anti-human IgG PE secondary antibody (Jackson ImmunoResearch, Cat. #: 109-116-170). […] As shown in FIGS. 12A-12B, all the three 4-1BB×CCR8 bispecific antibodies bind to CHO cells expressing human 4-1BB very well.

The target in experiment [3] is T1, human CCR8. As to the kind of experiment: flow cytometry on CHO cells expressing human CCR8, MFI of PE. The procedure:
Binding abilities of 4-1BB×CCR8 bispecific antibodies to CHO cells expressing human CCR8 were evaluated. About 50,000 CHO cells expressing human CCR8 were incubated with serially diluted antibodies (4-1BB-2×CCR8-2 (LC1) BsAb, 4-1BB-2×CCR8-2 (LC2) BsAb and 4-1BB-2×CCR8-2 (HC) BsAb) in FACS buffer (PBS+0.5% BSA) for 30 minutes on ice. After incubation, cells were washed twice and detected with […] The mean fluorescence intensity (MFI of PE) of each antibody was determined and plotted using GraphPad Prism software (Version 9.4.1; GraphPad Software Inc.). As shown in FIGS. 13A-13B, all the three 4-1BB×CCR8 bispecific antibodies bind to CHO cells expressing human CCR8 very well.

T2 sequence (Q07011 24-255): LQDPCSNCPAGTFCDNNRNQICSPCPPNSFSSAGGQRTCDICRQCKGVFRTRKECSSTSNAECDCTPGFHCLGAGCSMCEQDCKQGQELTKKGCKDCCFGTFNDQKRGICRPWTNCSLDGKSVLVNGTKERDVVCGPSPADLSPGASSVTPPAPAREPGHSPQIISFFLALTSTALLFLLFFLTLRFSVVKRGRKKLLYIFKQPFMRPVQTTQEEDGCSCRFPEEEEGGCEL
T1 sequence (P51685 whole entry): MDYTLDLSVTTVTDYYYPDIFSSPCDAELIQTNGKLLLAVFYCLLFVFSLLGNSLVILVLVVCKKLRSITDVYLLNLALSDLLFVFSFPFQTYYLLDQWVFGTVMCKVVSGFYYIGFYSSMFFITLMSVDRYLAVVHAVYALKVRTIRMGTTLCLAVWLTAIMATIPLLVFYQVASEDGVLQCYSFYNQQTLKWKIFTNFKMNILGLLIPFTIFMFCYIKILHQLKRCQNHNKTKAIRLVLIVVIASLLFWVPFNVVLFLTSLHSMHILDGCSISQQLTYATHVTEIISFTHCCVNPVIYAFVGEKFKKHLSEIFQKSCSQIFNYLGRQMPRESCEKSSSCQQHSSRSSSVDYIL

B1: 4-1BB-2×CCR8-2 (LC1) BsAb (bispecific antibody, human IgG1, kappa)
heavy: not shown
light: DVVLTQSPLSLPVTLGQPASISCRSSQSLLDSDGNTYLYWFQQRPGQSPRRLIYLVSNLGSGVPDRFSGSGSGTDFTLKISRVEAEDVGVYYCMQPTHAPYTFGQGTKLEIKGGGGSGGGGSGGGGSGGGGSEVQLVQSGAEVKKPGSSVKVSCKASDYTFNDYWVSWVRQAPGQGLEWIGEIYPNSGATNFNGKFRGRATLTVDNSASTAYMELSSLRSEDTAVYYCTREYTRDWFAYWGQGTLVTVSSGGGGSGGGGSGGGGSDIVMTQTPLSLSVTPGQPASISCRSSQSLFHSSGNTYLHWYLQKPGQPPQLLIYKVSNRFSGVPDRFSGSGSGTDFTLKISRVEAEDVGVYYCSQSTHVPFTFGQGTKLEIKRTVAAPSVFIFPPSDEQLKSGTASVVCLLNNFYPREAKVQWKVDNALQSGNSQESVTEQDSKDSTYSLSSTLTLSKADYEKHKVYACEVTHQGLSSPVTKSFNRGEC
notes: The light chain is the 4-1BB-2 scFv (VL-linker-VH) joined by a linker to the N-terminus of the CCR8-2 kappa light chain; also called 4-1BB-2×CCR8-2 (LC1) bispecific antibody
B1: the figures for the “EC50 (read off the curve)” value in experiment [1], in experiment [2] and in experiment [3] were about 0.3 nM, about 0.06 nM and about 2 nM, respectively.

B2: 4-1BB-2×CCR8-2 (LC2) BsAb (bispecific antibody, human IgG1, kappa)
heavy: not shown
light: DIVMTQTPLSLSVTPGQPASISCRSSQSLFHSSGNTYLHWYLQKPGQPPQLLIYKVSNRFSGVPDRFSGSGSGTDFTLKISRVEAEDVGVYYCSQSTHVPFTFGQGTKLEIKRTVAAPSVFIFPPSDEQLKSGTASVVCLLNNFYPREAKVQWKVDNALQSGNSQESVTEQDSKDSTYSLSSTLTLSKADYEKHKVYACEVTHQGLSSPVTKSFNRGECGGGGSGGGGSGGGGSDVVLTQSPLSLPVTLGQPASISCRSSQSLLDSDGNTYLYWFQQRPGQSPRRLIYLVSNLGSGVPDRFSGSGSGTDFTLKISRVEAEDVGVYYCMQPTHAPYTFGQGTKLEIKGGGGSGGGGSGGGGSGGGGSEVQLVQSGAEVKKPGSSVKVSCKASDYTFNDYWVSWVRQAPGQGLEWIGEIYPNSGATNFNGKFRGRATLTVDNSASTAYMELSSLRSEDTAVYYCTREYTRDWFAYWGQGTLVTVSS
notes: The light chain is the CCR8-2 kappa light chain with the 4-1BB-2 scFv (VL-linker-VH) joined by a linker to its C-terminus; also called 4-1BB-2×CCR8-2 (LC2) bispecific antibody
Take B2: in experiment [2], the “EC50 (read off the curve)” value was about 0.7 nM. For the same molecule, in experiment [3], the binding result is on record as “binds”.

B3: 4-1BB-2×CCR8-2 (HC) BsAb (bispecific antibody, human IgG1, kappa)
heavy: not shown
light: DIVMTQTPLSLSVTPGQPASISCRSSQSLFHSSGNTYLHWYLQKPGQPPQLLIYKVSNRFSGVPDRFSGSGSGTDFTLKISRVEAEDVGVYYCSQSTHVPFTFGQGTKLEIKRTVAAPSVFIFPPSDEQLKSGTASVVCLLNNFYPREAKVQWKVDNALQSGNSQESVTEQDSKDSTYSLSSTLTLSKADYEKHKVYACEVTHQGLSSPVTKSFNRGEC
notes: The light chain is the CCR8-2 kappa light chain; also called 4-1BB-2×CCR8-2 (HC) bispecific antibody
With B3, the “EC50 (read off the curve)” value in experiment [2] is about 0.7 nM. In addition, the binding result in experiment [3] is reported as “binds”.
